Data as given in EP4669352A1.
Read-outs that look alike come from different tables or passages of the source.

Experiments:
[1] = molecular target: D8 protein (vaccinia virus)
[2] = molecular target: D8 protein (vaccinia virus); assay: BLI (Octet)
[3] = molecular target: D8 protein (vaccinia virus); remark: listed apart in the source

B1: MV33 (antibody, V domains shown)
VH: EAQLVESGGGLVHPGGSLRLSCEVSGFTFSNSWMNWVRQAPGKGLECVARIIRNADGETADYAASVRGRFTISRDDPENTLYLRMKSLKTEDTAVYYCTTVPPLSHLFFHETYYFDYWGQGVLVTVSS
VL: QAARTQSPSMSASPGQSVTISCTGTRNDIGGYNYVSWYQQYPGKAPKLMIYDVSKRPSGVSDRFSGSKSGNTASLTISGLQAEDEANYYCSSYAGSNTYVFGSGTKLTIL
koff [1]: < 1e-07 s⁻¹ | Kd [2]: < 0.001 nM

B2: MV49 (antibody, V domains shown)
VH: QVQLQESGGGLVQPGGSLRLSCAASGFTFSNSWMNWVRQAPGKGPEWVARIKRKADGETADYAASVKGRFAVSRDDSKNTLYLQINSLKSEDTAVYYCTTVPPLYDLFYRGAYYFDSWGQGVLITVSS
VL: QPVLTQPPSVSGSPGQSVTISCTGTSSDIGGYKYVSWYQQHPGTAPKLMIYEVNKRPSGVSDRFSGSKSGNTASLTISGLQAEDEADYYCSAYSTSRTYIFGPGTRVTVL
Kd [3]: 0.011 nM
